The results in this text go back to patent US20220033505A1.

In experiment [1] the target is CD3 on human T cells (Jurkat cells, primary human T cells) (human) (UniProt P07766). Kind of experiment: flow cytometry; positive control scFv on human T cells, anti-His Alexa-647. For orientation: A flow cytometer gives signals particle by particle.
The target is the same in experiment [2]. Kind of experiment: flow cytometry; 10 nM antibody on Jurkat cells (No Ab background 2075.61).

Sequence of CD3 on human T cells (Jurkat cells, primary human T cells) (human) (P07766 23-207): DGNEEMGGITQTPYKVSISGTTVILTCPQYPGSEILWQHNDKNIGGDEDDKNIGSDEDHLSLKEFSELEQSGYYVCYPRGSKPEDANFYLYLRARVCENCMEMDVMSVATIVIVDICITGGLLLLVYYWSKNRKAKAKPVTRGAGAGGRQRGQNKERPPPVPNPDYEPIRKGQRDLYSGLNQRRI

Turning to “CD3W36 (anti-CD3 antibody SP34 formatted as LH-scFv, positive control)”, the MFI (n = 2) in experiment [1] worked out at 99500. On to “UCHT1 (anti-CD3 clone, positive control) (antibody)”, for which the MFI (arbitrary units) (arbitrary units) in experiment [2] turned out to be 89200.
